The source of these data is the supplement of paper PMC7125110.

B1: glmS ribozyme (parent)
chain: AUAAAAGCGCCAGAACUACAGAAAUGUAGUUGACGAGGAGGAGGUUUAUCGAAUUUUCGGCGGAUGCCUCCAAA

Holding throughout (conditions): with glucosamine-6-phosphate
The variants in data set [1] derive from B1. Description: kcat; higher = faster cleavage; RNA array. The procedure, abridged:
(§1)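 On sequenced MiSeq chips, barcoded ribozyme variants were made in situ by E. coli RNA polymerase and followed at 37 °C through a hybridised Cy3 probe. Glucosamine-6-phosphate was flowed in at 40 μM to 10 mM in HEPES/KCl/Mg(OAc)2 buffer. Exponential fits to normalised per-tile medians gave kobs, and weighted Michaelis–Menten fits gave kcat and KM.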

Variants of B1 are the subject of data set [2]. As to the kind of experiment: self-cleavage kobs at 40 uM GlcN6P; higher = faster cleavage; RNA array. The method in brief:
as §1

In data set [3] the parent is B1. As to the kind of experiment: self-cleavage kobs at 160 uM GlcN6P; higher = faster cleavage; RNA array. The method in brief:
as §1

In data set [4] the parent is B1. As to the kind of experiment: self-cleavage kobs at 640 uM GlcN6P; higher = faster cleavage; RNA array. The method in brief:
as §1

In data set [5] the parent is B1. As to the kind of experiment: self-cleavage kobs at 2500 uM GlcN6P; higher = faster cleavage; RNA array. The procedure, abridged:
as §1

Variants of B1 are the subject of data set [6]. As to the kind of experiment: self-cleavage kobs at 10000 uM GlcN6P; higher = faster cleavage; RNA array. The method in brief:
as §1

Data set [7] covers variants of B1. Description: KM; higher = weaker cofactor use; RNA array. The method in brief:
as §1

± gives the standard error. For part of these data: This sample holds only a part of the variants without activity. Some results are limits rather than exact numbers.

On to C11U G38A G41A A42G, for which the catalytic constant (kcat) with glucosamine-6-phosphate [1] stood at 1.14e-05 ± 5.7e-06 s⁻¹. In addition, the “self-cleavage kobs at 40 uM GlcN6P” value with glucosamine-6-phosphate [2] was less than 1e-05 s⁻¹. The “self-cleavage kobs at 160 uM GlcN6P” value with glucosamine-6-phosphate [3] is less than 1e-05 s⁻¹.

In the case of G40A G41A, in the data set with glucosamine-6-phosphate [1], the turnover number (kcat) was 0.000106 ± 2.5e-05 s⁻¹. In addition, in the data set with glucosamine-6-phosphate [4], the “self-cleavage kobs at 640 uM GlcN6P” value is 6.83e-05 ± 1.2e-05 s⁻¹. Besides, in the data set with glucosamine-6-phosphate [5], the “self-cleavage kobs at 2500 uM GlcN6P” value came to 0.000163 ± 2.3e-05 s⁻¹. Further, in the data set with glucosamine-6-phosphate [6], the “self-cleavage kobs at 10000 uM GlcN6P” value was determined as 8.89e-05 ± 1e-05 s⁻¹.

Turning to C11A A12G, the catalytic constant (kcat) with glucosamine-6-phosphate [1] was 0.000158 ± 1.7e-05 s⁻¹. For the same variant, the KM with glucosamine-6-phosphate [7] amounted to 3020 ± 720 µM. Moreover, the “self-cleavage kobs at 640 uM GlcN6P” value with glucosamine-6-phosphate [4] came to 2.43e-05 ± 1.1e-05 s⁻¹. Besides, in the data set with glucosamine-6-phosphate [5], the “self-cleavage kobs at 2500 uM GlcN6P” value amounted to 8.06e-05 ± 2.3e-05 s⁻¹. Also, in the data set with glucosamine-6-phosphate [6], the “self-cleavage kobs at 10000 uM GlcN6P” value worked out at 0.000119 ± 2.5e-05 s⁻¹.

A33U C61G: the kcat with glucosamine-6-phosphate [1] is less than 1e-05 s⁻¹. The “self-cleavage kobs at 40 uM GlcN6P” value in the data set with glucosamine-6-phosphate [2] is less than 1e-05 s⁻¹. Also, the “self-cleavage kobs at 10000 uM GlcN6P” value with glucosamine-6-phosphate [6] was less than 1e-05 s⁻¹.

Take A53C U56G: the kcat with glucosamine-6-phosphate [1] worked out at 0.00299 ± 0.00066 s⁻¹. The KM in the data set with glucosamine-6-phosphate [7] was 1830 ± 570 µM. For the same variant, the “self-cleavage kobs at 40 uM GlcN6P” value with glucosamine-6-phosphate [2] turned out to be 7.77e-05 ± 1.1e-05 s⁻¹. Further, the “self-cleavage kobs at 160 uM GlcN6P” value in the data set with glucosamine-6-phosphate [3] stood at 0.000166 ± 4.2e-05 s⁻¹. The “self-cleavage kobs at 640 uM GlcN6P” value with glucosamine-6-phosphate [4] stood at 0.000851 ± 0.00012 s⁻¹. Moreover, the “self-cleavage kobs at 2500 uM GlcN6P” value with glucosamine-6-phosphate [5] came out at 0.00165 ± 0.00035 s⁻¹. The “self-cleavage kobs at 10000 uM GlcN6P” value with glucosamine-6-phosphate [6] stood at 0.00254 ± 0.00039 s⁻¹.

C16U U69A: in the data set with glucosamine-6-phosphate [1], the kcat stood at 0.000112 ± 2.4e-05 s⁻¹. Besides, the “self-cleavage kobs at 40 uM GlcN6P” value in the data set with glucosamine-6-phosphate [2] worked out at 7.08e-05 ± 2e-05 s⁻¹. Moreover, the “self-cleavage kobs at 160 uM GlcN6P” value with glucosamine-6-phosphate [3] turned out to be 6.03e-05 ± 2e-05 s⁻¹. In the data set with glucosamine-6-phosphate [4], the “self-cleavage kobs at 640 uM GlcN6P” value was 9.39e-05 ± 3.7e-05 s⁻¹. Also, in the data set with glucosamine-6-phosphate [5], the “self-cleavage kobs at 2500 uM GlcN6P” value was found to be 0.00022 ± 6.1e-05 s⁻¹. In addition, the “self-cleavage kobs at 10000 uM GlcN6P” value with glucosamine-6-phosphate [6] was determined as 0.000115 ± 2e-05 s⁻¹.

Regarding G13C C67G, the kcat in the data set with glucosamine-6-phosphate [1] stood at 1.33e-05 ± 8.3e-07 s⁻¹. The Michaelis-Menten constant (KM) with glucosamine-6-phosphate [7] came out at 189 ± 76 µM.

For G43A C70U, in the data set with glucosamine-6-phosphate [1], the kcat worked out at 6.4e-05 ± 1.2e-05 s⁻¹. Besides, in the data set with glucosamine-6-phosphate [5], the “self-cleavage kobs at 2500 uM GlcN6P” value was 4.94e-05 ± 8.8e-06 s⁻¹. The “self-cleavage kobs at 10000 uM GlcN6P” value with glucosamine-6-phosphate [6] worked out at 5.31e-05 ± 8.3e-06 s⁻¹.

Take A6G U65A: in the data set with glucosamine-6-phosphate [1], the kcat turned out to be 7.49e-05 ± 1.1e-05 s⁻¹. Moreover, in the data set with glucosamine-6-phosphate [5], the “self-cleavage kobs at 2500 uM GlcN6P” value came out at 4.41e-05 ± 1.2e-05 s⁻¹. For the same variant, the “self-cleavage kobs at 10000 uM GlcN6P” value with glucosamine-6-phosphate [6] was found to be 6.05e-05 ± 9.8e-06 s⁻¹.

U54A G66U: the catalytic constant (kcat) with glucosamine-6-phosphate [1] turned out to be 0.00199 ± 0.00037 s⁻¹. Also, the Michaelis constant (KM) with glucosamine-6-phosphate [7] worked out at 1460 ± 440 µM. In addition, the “self-cleavage kobs at 40 uM GlcN6P” value in the data set with glucosamine-6-phosphate [2] is 8.58e-05 ± 1.9e-05 s⁻¹. The “self-cleavage kobs at 160 uM GlcN6P” value with glucosamine-6-phosphate [3] amounted to 0.000194 ± 3.3e-05 s⁻¹. Besides, in the data set with glucosamine-6-phosphate [4], the “self-cleavage kobs at 640 uM GlcN6P” value turned out to be 0.000521 ± 8e-05 s⁻¹. In addition, in the data set with glucosamine-6-phosphate [5], the “self-cleavage kobs at 2500 uM GlcN6P” value came to 0.00141 ± 0.00024 s⁻¹. The “self-cleavage kobs at 10000 uM GlcN6P” value with glucosamine-6-phosphate [6] is 0.00174 ± 0.00024 s⁻¹.

Regarding C16U G59U, in the data set with glucosamine-6-phosphate [1], the kcat stood at 4.21e-05 ± 7.7e-06 s⁻¹. Besides, the “self-cleavage kobs at 2500 uM GlcN6P” value with glucosamine-6-phosphate [5] was determined as 4.99e-05 ± 1.2e-05 s⁻¹. Moreover, the “self-cleavage kobs at 10000 uM GlcN6P” value with glucosamine-6-phosphate [6] was determined as 3.73e-05 ± 7.2e-06 s⁻¹.

U47G C70A: the kcat in the data set with glucosamine-6-phosphate [1] came to 0.000101 ± 9.5e-06 s⁻¹. Moreover, the “self-cleavage kobs at 40 uM GlcN6P” value with glucosamine-6-phosphate [2] was 3.74e-05 ± 1.6e-05 s⁻¹. Also, in the data set with glucosamine-6-phosphate [3], the “self-cleavage kobs at 160 uM GlcN6P” value turned out to be 0.000107 ± 1.5e-05 s⁻¹. In addition, the “self-cleavage kobs at 640 uM GlcN6P” value in the data set with glucosamine-6-phosphate [4] was determined as 9.99e-05 ± 1.3e-05 s⁻¹. For the same variant, in the data set with glucosamine-6-phosphate [5], the “self-cleavage kobs at 2500 uM GlcN6P” value was 0.000111 ± 1.3e-05 s⁻¹. In addition, the “self-cleavage kobs at 10000 uM GlcN6P” value in the data set with glucosamine-6-phosphate [6] came to 8.94e-05 ± 8.5e-06 s⁻¹.

Consider A12C C68U, for which, in the data set with glucosamine-6-phosphate [1], the kcat was found to be 0.000589 ± 4.7e-05 s⁻¹. Also, the KM with glucosamine-6-phosphate [7] amounted to 1370 ± 220 µM. In addition, the “self-cleavage kobs at 160 uM GlcN6P” value with glucosamine-6-phosphate [3] was determined as 6.12e-05 ± 8.3e-06 s⁻¹. Further, the “self-cleavage kobs at 640 uM GlcN6P” value with glucosamine-6-phosphate [4] amounted to 0.00018 ± 1.7e-05 s⁻¹. The “self-cleavage kobs at 2500 uM GlcN6P” value with glucosamine-6-phosphate [5] was found to be 0.000436 ± 3.7e-05 s⁻¹. The “self-cleavage kobs at 10000 uM GlcN6P” value with glucosamine-6-phosphate [6] was 0.000494 ± 3.6e-05 s⁻¹.

In the case of G41A U45A, in the data set with glucosamine-6-phosphate [1], the turnover number (kcat) was found to be 0.000317 ± 4.9e-05 s⁻¹. Moreover, the KM with glucosamine-6-phosphate [7] is 140 ± 59 µM. In addition, the “self-cleavage kobs at 40 uM GlcN6P” value in the data set with glucosamine-6-phosphate [2] was 9.19e-05 ± 1.9e-05 s⁻¹. In addition, the “self-cleavage kobs at 160 uM GlcN6P” value in the data set with glucosamine-6-phosphate [3] worked out at 0.000128 ± 3e-05 s⁻¹. For the same variant, the “self-cleavage kobs at 640 uM GlcN6P” value with glucosamine-6-phosphate [4] was determined as 0.000296 ± 5.5e-05 s⁻¹. For the same variant, in the data set with glucosamine-6-phosphate [5], the “self-cleavage kobs at 2500 uM GlcN6P” value stood at 0.000354 ± 8.1e-05 s⁻¹. Moreover, the “self-cleavage kobs at 10000 uM GlcN6P” value with glucosamine-6-phosphate [6] was 0.000299 ± 5.4e-05 s⁻¹.

Turning to G29C C71U, the kcat in the data set with glucosamine-6-phosphate [1] is 0.00146 ± 0.0004 s⁻¹. Besides, the KM in the data set with glucosamine-6-phosphate [7] worked out at 1590 ± 700 µM. In the data set with glucosamine-6-phosphate [2], the “self-cleavage kobs at 40 uM GlcN6P” value is 6.23e-05 ± 7.6e-06 s⁻¹. Also, in the data set with glucosamine-6-phosphate [3], the “self-cleavage kobs at 160 uM GlcN6P” value is 0.000119 ± 1.8e-05 s⁻¹. The “self-cleavage kobs at 640 uM GlcN6P” value with glucosamine-6-phosphate [4] came to 0.000356 ± 4.9e-05 s⁻¹. The “self-cleavage kobs at 2500 uM GlcN6P” value with glucosamine-6-phosphate [5] turned out to be 0.000805 ± 9.7e-05 s⁻¹. In addition, the “self-cleavage kobs at 10000 uM GlcN6P” value with glucosamine-6-phosphate [6] was determined as 0.00143 ± 0.00015 s⁻¹.

What is called kcat is the maximal rate divided by the concentration of active sites. As a reminder, the KM is the concentration of substrate that gives half-maximal velocity.
